Assay results reported in article PMC2894786, “Fibronectin-binding protein B variation in Staphylococcus aureus” (BMC Microbiology, 2010).

Experiments:
[1] = biological target: human fibronectin (human); experiment: ELISA; solid-phase binding: elastin (50 μg/ml), fibrinogen (10 μg/ml) or fibronectin (10 μg/ml) coated on microtitre wells; purified rFnBPB N23 in PBS added, 37°C for 2 hr; bound protein detected with anti-hexahistidine monoclonal antibody 7E8
[2] = biological target: human fibronectin (human); experiment: SPR; BIAcore X100; fibrinogen, elastin or fibronectin amine-coupled to CM5 chips; rN23 type I passed over at 0.15 μM to 10 μM in PBS; blank flow cell subtracted; equilibrium dissociation constants
[3] = biological target: human aortic elastin (human) (UniProt P15502); experiment: ELISA; solid-phase binding: elastin (50 μg/ml), fibrinogen (10 μg/ml) or fibronectin (10 μg/ml) coated on microtitre wells; purified rFnBPB N23 in PBS added, 37°C for 2 hr; bound protein detected with anti-hexahistidine monoclonal antibody 7E8
human fibrinogen (human) = human fibrinogen (human) (UniProt P02671); experiment: as above
human aortic elastin [4] = biological target: T1, human aortic elastin (human, UniProt P15502 27-786); experiment: SPR; BIAcore X100; fibrinogen, elastin or fibronectin amine-coupled to CM5 chips; rN23 type I passed over at 0.15 μM to 10 μM in PBS; blank flow cell subtracted; equilibrium dissociation constants; conditions: both partners purified
T1 construct: elastin from human aorta; Tissue elastin is a cross-linked material; The vendor named for the ELISA differs from that named for the SPR; source: bought: Elastin Products Company (ELISA); Enzyme Research Laboratories (SPR)
T1 sequence: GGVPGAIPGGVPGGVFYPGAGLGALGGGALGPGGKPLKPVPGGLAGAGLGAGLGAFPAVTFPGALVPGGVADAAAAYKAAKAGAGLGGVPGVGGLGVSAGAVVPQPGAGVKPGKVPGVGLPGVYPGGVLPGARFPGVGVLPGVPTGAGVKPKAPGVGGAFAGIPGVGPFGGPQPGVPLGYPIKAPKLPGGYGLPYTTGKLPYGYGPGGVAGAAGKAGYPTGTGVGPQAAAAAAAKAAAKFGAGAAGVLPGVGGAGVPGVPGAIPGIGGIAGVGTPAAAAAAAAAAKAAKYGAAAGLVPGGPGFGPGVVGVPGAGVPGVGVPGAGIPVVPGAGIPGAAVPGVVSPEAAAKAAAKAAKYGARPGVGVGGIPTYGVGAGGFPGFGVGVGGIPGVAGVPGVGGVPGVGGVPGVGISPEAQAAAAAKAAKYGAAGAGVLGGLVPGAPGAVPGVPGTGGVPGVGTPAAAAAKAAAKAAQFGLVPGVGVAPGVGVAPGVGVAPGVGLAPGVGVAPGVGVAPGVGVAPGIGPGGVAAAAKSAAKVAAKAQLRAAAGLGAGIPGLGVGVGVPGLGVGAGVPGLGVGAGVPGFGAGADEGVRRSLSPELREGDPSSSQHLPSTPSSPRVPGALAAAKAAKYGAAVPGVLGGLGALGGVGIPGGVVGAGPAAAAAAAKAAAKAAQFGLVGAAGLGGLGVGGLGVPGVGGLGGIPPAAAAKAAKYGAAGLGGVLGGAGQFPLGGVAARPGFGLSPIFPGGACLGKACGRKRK

human fibrinogen [5] = biological target: T2, human fibrinogen (human, UniProt P02671-2 20-644; P02675 31-491; P02679-2 27-437); experiment: as above; conditions: both partners purified
T2 construct: fibrinogen alpha chain, human; fibrinogen beta chain, human; fibrinogen gamma chain, human; source: bought: Calbiochem; copies: + +
T2 sequence 1: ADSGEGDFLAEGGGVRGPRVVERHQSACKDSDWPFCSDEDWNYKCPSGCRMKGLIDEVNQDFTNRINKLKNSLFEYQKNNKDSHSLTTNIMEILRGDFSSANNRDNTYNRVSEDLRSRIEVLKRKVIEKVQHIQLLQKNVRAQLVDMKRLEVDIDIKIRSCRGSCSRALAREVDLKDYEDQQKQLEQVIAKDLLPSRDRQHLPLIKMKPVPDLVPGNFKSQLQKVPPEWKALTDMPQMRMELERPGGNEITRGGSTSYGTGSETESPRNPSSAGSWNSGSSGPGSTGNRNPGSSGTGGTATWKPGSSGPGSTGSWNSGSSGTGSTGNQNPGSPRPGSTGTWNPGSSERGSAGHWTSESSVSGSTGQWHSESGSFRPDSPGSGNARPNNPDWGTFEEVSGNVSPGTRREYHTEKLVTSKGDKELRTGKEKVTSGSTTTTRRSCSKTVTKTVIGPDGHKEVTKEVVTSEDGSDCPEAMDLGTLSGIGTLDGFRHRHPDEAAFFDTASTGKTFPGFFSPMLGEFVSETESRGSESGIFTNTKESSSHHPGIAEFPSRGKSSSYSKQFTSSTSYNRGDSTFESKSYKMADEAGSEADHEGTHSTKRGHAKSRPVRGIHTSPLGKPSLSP
T2 sequence 2: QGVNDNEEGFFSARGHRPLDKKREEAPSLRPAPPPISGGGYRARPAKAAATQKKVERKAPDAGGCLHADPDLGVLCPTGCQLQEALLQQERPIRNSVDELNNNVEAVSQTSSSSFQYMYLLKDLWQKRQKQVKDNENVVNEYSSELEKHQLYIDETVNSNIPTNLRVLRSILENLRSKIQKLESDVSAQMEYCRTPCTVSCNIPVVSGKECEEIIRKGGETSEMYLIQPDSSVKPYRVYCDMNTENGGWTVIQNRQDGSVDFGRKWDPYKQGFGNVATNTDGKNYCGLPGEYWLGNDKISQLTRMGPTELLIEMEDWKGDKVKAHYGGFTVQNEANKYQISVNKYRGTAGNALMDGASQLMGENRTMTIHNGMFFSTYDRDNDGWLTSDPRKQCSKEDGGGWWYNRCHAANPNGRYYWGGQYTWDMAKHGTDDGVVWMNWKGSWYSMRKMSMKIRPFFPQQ
T2 sequence 3: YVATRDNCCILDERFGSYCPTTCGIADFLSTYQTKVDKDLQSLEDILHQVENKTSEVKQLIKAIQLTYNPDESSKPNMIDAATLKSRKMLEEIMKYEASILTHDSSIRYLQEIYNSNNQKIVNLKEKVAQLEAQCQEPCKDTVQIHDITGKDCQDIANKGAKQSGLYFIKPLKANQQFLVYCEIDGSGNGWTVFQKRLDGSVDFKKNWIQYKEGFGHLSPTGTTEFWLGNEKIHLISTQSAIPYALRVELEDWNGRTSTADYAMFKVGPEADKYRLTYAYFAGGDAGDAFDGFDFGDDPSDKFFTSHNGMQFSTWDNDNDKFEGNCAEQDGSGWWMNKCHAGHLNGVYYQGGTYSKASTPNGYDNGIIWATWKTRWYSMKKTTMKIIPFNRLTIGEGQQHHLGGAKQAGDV

human aortic elastin [6] = biological target: T1, human aortic elastin; experiment: ELISA; solid-phase binding: elastin (50 μg/ml), fibrinogen (10 μg/ml) or fibronectin (10 μg/ml) coated on microtitre wells; purified rFnBPB N23 in PBS added, 37°C for 2 hr; bound protein detected with anti-hexahistidine monoclonal antibody 7E8; conditions: both partners purified
human fibrinogen [7] = biological target: T2, human fibrinogen; experiment: as above; conditions: both partners purified

Molecule	EC50 [1]	Kd [2]	EC50 [3]	EC50 (human fibrinogen (human))	Kd (human aortic elastin [4])	Kd (human fibrinogen [5])	EC50 (human aortic elastin [6])	EC50 (human fibrinogen [7])
recombinant FnBPB N23 isotype I (residues 162-480) from S. aureus strain 8325-4 (from UniProt A0A0H2XKG3 162-480) (domain or fragment)	1500 nM	2500 nM	–	–	–	–	–	–
recombinant FnBPB N23 isotype II from S. aureus strain N315 (domain or fragment)	1500 nM	–	900 nM	500 nM	–	–	–	–
recombinant FnBPB N23 isotype III from S. aureus strain MSSA476 (domain or fragment)	1500 nM	–	900 nM	500 nM	–	–	–	–
recombinant FnBPB N23 isotype IV from S. aureus strain P1 (domain or fragment)	1500 nM	–	900 nM	500 nM	–	–	–	–
recombinant FnBPB N23 isotype V from S. aureus strain 2 (domain or fragment)	1500 nM	–	900 nM	500 nM	–	–	–	–
recombinant FnBPB N23 isotype VI from S. aureus strain 3077 (domain or fragment)	1500 nM	–	900 nM	500 nM	–	–	–	–
recombinant FnBPB N23 isotype VII from S. aureus strain 233 (domain or fragment)	1500 nM	–	900 nM	500 nM	–	–	–	–
recombinant FnBPB N23 isotype I (residues 162-480) from S. aureus strain 8325-4 (domain or fragment, cloned BamHI/SmaI into pQE30 with a 3' stop codon; also called rN23 isotype I; rN23 type I; source: E. coli TOPP 3, pQE30, purified (Ni2+ chelate chromatography); not shown: His6, N-terminal, kept) TGTDVTNKVEVEEGSEIVGHKQDTNVVNPHNAERVTLKYKWKFGEGIKAGDYFDFTLSDNVETHGISTLRKVPEIKSTDGQVMATGEIIGERKVRYTFKEYVQEKKDLTAELSLNLFIDPTTVTQKGNQNVEVKLGETTVSKIFNIQYLGGVRDNWGVTANGRIDTLNKVDGKFSHFAYMKPNNQSLSSVTVTGQVTKGNKPGVNNPTVKVYKHIGSDDLAESVYAKLDDVSKFEDVTDNMSLDFDTNGGYSLNFNNLDQSKNYVIKYEGYYDSNASNLEFQTHLFGYYNYYYTSNLTWKNGVAFYSNNAQGDGKDKLK	–	–	–	–	3200 nM	2000 nM	~900 nM	~500 nM
